Measurements: article PMC8040287, “Characterization of two enzymes from Psychrobacter cryohalolentis that are required for the biosynthesis of an unusual diacetamido-D-sugar” (The Journal of Biological Chemistry, 2021)
One block for each molecule: values may come before it.

Assays:
[1] = target: Pcryo_0637, N-acetyltransferase from Psychrobacter cryohalolentis K5T, C-terminally His-tagged form used for crystallization (Psychrobacter cryohalolentis K5T (ATCC BAA-1226)) (UniProt Q1QD33); assay: crystal structure; hanging drop, room temperature, 23-26% 2-methyl-2,4-pentanediol, 100 mM HEPES pH 7.5, with CoA or acetyl-CoA and UDP or UDP-sugar ligands (four complexes); space group R3, one subunit in the asymmetric unit, trimer formed about the crystallographic triad; 1.3-1.55 Å
Pcryo_0638 = target: T1, Pcryo_0638 (Psychrobacter cryohalolentis, UniProt Q1QD32); assay: X-ray crystal structure, […] Å; type: binding; conditions: pH 8.0
T1 construct: full length; N-terminal His tag removed with rTEV; expressed in E. coli Rosetta2(DE3); dimer; residues Ala 5 to Asn 399 seen in crystal
T1 sequence (Q1QD32 1-400): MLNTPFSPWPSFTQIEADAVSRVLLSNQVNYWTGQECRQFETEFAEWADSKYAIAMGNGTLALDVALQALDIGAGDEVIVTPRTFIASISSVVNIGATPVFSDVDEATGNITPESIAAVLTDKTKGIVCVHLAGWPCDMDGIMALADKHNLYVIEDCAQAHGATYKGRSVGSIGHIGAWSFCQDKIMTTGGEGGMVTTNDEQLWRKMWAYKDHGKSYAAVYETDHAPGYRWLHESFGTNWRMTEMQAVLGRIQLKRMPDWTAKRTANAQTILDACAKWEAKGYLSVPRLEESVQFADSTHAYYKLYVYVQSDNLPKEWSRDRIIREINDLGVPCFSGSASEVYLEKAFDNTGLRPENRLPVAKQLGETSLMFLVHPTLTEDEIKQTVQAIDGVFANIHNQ

[2] = substrate: CC(=O)N[C@H]1[C@@H](OP(=O)(O)OP(=O)(O)OC[C@H]2O[C@@H](n3ccc(=O)[nH]c3=O)[C@H](O)[C@@H]2O)O[C@H](C)[C@@H](N)[C@@H]1O; assay: discontinuous HPLC assay of acetylated product, Michaelis-Menten fit; type: biochemical, Psychrobacter cryohalolentis; conditions: 50 mM HEPPS pH 8.0, 1.5 mM acetyl-CoA, structure with CoA solved on C-terminally tagged protein
Excerpt: (§1) discontinuous HPLC assay of acetylated product, Michaelis-Menten fit on Pcryo_0637

[3] = substrate: CC(=O)SCCNC(=O)CCNC(=O)[C@H](O)C(C)(C)COP(=O)(O)OP(=O)(O)OC[C@H]1O[C@@H](n2cnc3c(N)ncnc32)[C@H](O)[C@@H]1OP(=O)(O)O; assay: as above; type: biochemical, Psychrobacter cryohalolentis; conditions: 50 mM HEPPS pH 8.0, 8 mM UDP-2-acetamido-4-amino-2,4,6-trideoxy-D-glucose, structure with UDP solved on C-terminally tagged protein
Excerpt: as §1

purified protein = substrate: CC(=O)N[C@H]1[C@@H](OP(=O)(O)OP(=O)(O)OC[C@H]2O[C@@H](n3ccc(=O)[nH]c3=O)[C@H](O)[C@@H]2O)O[C@H](C)C(=O)[C@@H]1O; assay: purified protein; type: biochemical, Psychrobacter cryohalolentis; conditions: 50 mM HEPPS pH 8.0, 0.5 mM PLP, 40 mM sodium glutamate
[4] = target: the molecule itself; assay: crystal structure; hanging drop, room temperature, 18-22% PEG 8000, 200 mM tetramethylammonium chloride, 100 mM HEPPS pH 8.0, with 1 mM PLP and 5 mM UDP-2-acetamido-4-amino-2,4,6-trideoxy-D-glucose; space group P1, one dimer in the asymmetric unit; 1.3 Å

stoichiometry N [1]: 3
Molecule: Pcryo_0637, N-acetyltransferase from Psychrobacter cryohalolentis K5T, C-terminally His-tagged form used for crystallization (from UniProt Q1QD33 1-219) (enzyme)

Molecule: Cc1ncc(COP(=O)(O)O)c(CN)c1O [PMP]
X-ray crystal structure, 1.3 Å (Pcryo_0638; half-occupancy beside the external aldimine): a mixture of the external aldimine and PMP was subsequently built into the electron density

Molecule: Cc1ncc(COP(=O)(O)O)c(C=O)c1O [PLP]
X-ray crystal structure, 1.3 Å (Pcryo_0638; covalent, external aldimine with the aminosugar product, half-occupancy): a mixture of the external aldimine and PMP was subsequently built into the electron density

B1: Pcryo_0637 (Psychrobacter cryohalolentis K5) (protein)
chain: MSKVFAVYGASGCGRSLMPVANEQLRILEGDTDSQIVFIDDALDDNITVNGYTAMNYTKFKSIKNDDKFVLIAIANSSIRQKIADKLVKDGISLWTVQGMTTLIMDEVSIDAGAALSPFVTIAANVTIGKCFHANLYSYVEHDCIIGDYVTFAPRVSCNGNIHIHDHAYIGTGAVIKQGTPDKPLIIGKGAIVGMGAVVTKEVPAGAVVIGNPARLLNK
notes: full length; kinetics with N-terminal His tag removed by rTEV; crystals with noncleavable C-terminal tag LEHHHHHH; expressed in E. coli Rosetta2(DE3); trimer; domains Ser 2-Ser 93 and Leu 94-Ala 218
Km [2]: 620 ± 50 µM
kcat [2]: 545 ± 40 s⁻¹
kcat/Km [2]: 880000 ± 90000 M⁻¹ s⁻¹
Km [3]: 70 ± 8 µM
kcat [3]: 1900 ± 200 s⁻¹
kcat/Km [3]: 2.7e+07 ± 3e+06 M⁻¹ s⁻¹

B2: Pcryo_0638, PLP-dependent aminotransferase from Psychrobacter cryohalolentis K5T (enzyme)
chain: MLNTPFSPWPSFTQIEADAVSRVLLSNQVNYWTGQECRQFETEFAEWADSKYAIAMGNGTLALDVALQALDIGAGDEVIVTPRTFIASISSVVNIGATPVFSDVDEATGNITPESIAAVLTDKTKGIVCVHLAGWPCDMDGIMALADKHNLYVIEDCAQAHGATYKGRSVGSIGHIGAWSFCQDKIMTTGGEGGMVTTNDEQLWRKMWAYKDHGKSYAAVYETDHAPGYRWLHESFGTNWRMTEMQAVLGRIQLKRMPDWTAKRTANAQTILDACAKWEAKGYLSVPRLEESVQFADSTHAYYKLYVYVQSDNLPKEWSRDRIIREINDLGVPCFSGSASEVYLEKAFDNTGLRPENRLPVAKQLGETSLMFLVHPTLTEDEIKQTVQAIDGVFANIHNQ
notes: Pcryo_0638, aminotransferase encoded by gene 0638 of Psychrobacter cryohalolentis K5T (ATCC BAA-1226); electron density continuous from Ala 5 to Asn 399; also called protein encoded by the 0638 gene; Pyro_0638; source: E. coli Rosetta2(DE3), purified (Ni-NTA, tag removed with rTEV protease); not shown: polyhistidine tag, N-terminal, cleaved
Km (purified protein): 290 ± 40 µM
kcat (purified protein): 1.9 ± 0.2 s⁻¹
kcat/Km (purified protein): 6600 ± 700 M⁻¹ s⁻¹
stoichiometry N [4]: 2
